The target of this experiment is full-length recombinant ABI1 (UniProt Q8IZP0-5 1-476). Kind of experiment: SPR. Background: In SPR one partner is held on a chip, and binding of the other changes the refractive index at the surface.

The values below come from PMC6609509 (Molecular psychiatry, 2019).

B1: Shank3 fragment 4 (aa 668–858), S685I (domain or fragment, mouse, UniProt Q4ACU6 668-858, looked up)
chain: EEDGARRRAPPPPKRAPITTLTLRSKSMTAELEELASIRRRKGEKLDEILAVAAEPTLRPDIADADSRAATVKQRPTSRRITPAEISSLFERQGLPGPEKLPGSLRKGIPRTKSVGEDEKLASLLEGRFPRSTSMQDTVREGRGIPPPPQTAPPPPPAPYYFDSGPPPTFSPPPPPGRAYDTVRSSFKPGL
Consider B1, for which the “fold increase in KD against wild-type fragment 4” value is about 4 fold.
